# Measured values taken from US20200190201A1.
# How the values were obtained:
# [1] = target: human TrkC (full-length TrkC receptor) (human) (UniProt Q16288); assay: flow cytometry on HEK293 cells stably expressing TrkC-FL, background controls
# [2] = target: rat TrkB (on rat spiral ganglion neurons) (rat) (UniProt Q63604); assay: cell-based or functional assay
# human TrkB (human) = human TrkB (human) (UniProt Q16620); assay: cell-based or functional assay
# [3] = target: human TrkC (full-length TrkC receptor) (human) (UniProt Q16288); assay: cell-based or functional assay
# [4] = target: rat TrkC (on rat spiral ganglion neurons) (rat) (UniProt Q03351); assay: cell-based or functional assay
# Chain of UniProt Q03351 (Q03351 32-864): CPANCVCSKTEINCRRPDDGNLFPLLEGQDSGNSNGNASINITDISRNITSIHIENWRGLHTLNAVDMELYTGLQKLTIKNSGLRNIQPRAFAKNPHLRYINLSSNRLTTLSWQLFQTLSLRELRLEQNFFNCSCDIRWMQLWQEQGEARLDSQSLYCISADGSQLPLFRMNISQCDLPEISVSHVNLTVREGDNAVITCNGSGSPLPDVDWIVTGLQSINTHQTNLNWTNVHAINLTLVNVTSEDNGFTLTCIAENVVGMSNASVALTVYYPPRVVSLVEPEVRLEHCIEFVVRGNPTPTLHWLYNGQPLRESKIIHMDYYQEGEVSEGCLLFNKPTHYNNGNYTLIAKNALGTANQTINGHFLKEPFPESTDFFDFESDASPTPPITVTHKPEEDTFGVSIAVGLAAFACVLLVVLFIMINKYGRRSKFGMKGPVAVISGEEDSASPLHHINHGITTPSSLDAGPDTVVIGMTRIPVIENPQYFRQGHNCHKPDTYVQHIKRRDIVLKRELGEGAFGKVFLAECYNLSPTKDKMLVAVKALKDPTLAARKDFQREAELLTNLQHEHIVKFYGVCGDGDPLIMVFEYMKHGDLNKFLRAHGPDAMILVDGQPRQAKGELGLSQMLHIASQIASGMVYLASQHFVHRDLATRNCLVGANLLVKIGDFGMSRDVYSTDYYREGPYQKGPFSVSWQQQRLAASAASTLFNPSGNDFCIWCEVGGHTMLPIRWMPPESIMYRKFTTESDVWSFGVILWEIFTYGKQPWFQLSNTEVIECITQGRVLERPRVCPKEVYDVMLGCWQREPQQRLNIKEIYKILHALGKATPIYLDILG
# Chain of UniProt Q16288 (Q16288 32-839): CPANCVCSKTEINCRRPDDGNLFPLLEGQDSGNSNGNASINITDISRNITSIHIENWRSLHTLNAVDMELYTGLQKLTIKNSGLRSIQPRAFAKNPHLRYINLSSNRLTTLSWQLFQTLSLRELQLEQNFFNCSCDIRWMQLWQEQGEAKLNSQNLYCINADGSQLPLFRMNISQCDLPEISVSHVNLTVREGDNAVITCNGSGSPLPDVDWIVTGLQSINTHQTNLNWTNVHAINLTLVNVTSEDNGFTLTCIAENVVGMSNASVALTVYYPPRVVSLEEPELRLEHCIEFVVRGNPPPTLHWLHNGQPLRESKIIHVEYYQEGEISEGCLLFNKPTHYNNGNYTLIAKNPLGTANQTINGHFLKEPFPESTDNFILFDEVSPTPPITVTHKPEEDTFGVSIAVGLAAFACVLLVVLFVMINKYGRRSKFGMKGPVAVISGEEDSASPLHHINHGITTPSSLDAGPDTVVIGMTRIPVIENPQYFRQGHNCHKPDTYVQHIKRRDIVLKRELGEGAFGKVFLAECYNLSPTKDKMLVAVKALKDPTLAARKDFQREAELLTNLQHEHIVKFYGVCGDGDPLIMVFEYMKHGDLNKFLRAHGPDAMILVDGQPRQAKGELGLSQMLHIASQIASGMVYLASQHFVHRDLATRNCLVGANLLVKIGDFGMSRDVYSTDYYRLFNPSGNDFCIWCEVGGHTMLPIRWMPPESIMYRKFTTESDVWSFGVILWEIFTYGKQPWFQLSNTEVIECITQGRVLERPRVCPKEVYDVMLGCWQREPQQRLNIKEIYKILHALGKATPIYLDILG
# Chain of UniProt Q16620 (Q16620 32-822): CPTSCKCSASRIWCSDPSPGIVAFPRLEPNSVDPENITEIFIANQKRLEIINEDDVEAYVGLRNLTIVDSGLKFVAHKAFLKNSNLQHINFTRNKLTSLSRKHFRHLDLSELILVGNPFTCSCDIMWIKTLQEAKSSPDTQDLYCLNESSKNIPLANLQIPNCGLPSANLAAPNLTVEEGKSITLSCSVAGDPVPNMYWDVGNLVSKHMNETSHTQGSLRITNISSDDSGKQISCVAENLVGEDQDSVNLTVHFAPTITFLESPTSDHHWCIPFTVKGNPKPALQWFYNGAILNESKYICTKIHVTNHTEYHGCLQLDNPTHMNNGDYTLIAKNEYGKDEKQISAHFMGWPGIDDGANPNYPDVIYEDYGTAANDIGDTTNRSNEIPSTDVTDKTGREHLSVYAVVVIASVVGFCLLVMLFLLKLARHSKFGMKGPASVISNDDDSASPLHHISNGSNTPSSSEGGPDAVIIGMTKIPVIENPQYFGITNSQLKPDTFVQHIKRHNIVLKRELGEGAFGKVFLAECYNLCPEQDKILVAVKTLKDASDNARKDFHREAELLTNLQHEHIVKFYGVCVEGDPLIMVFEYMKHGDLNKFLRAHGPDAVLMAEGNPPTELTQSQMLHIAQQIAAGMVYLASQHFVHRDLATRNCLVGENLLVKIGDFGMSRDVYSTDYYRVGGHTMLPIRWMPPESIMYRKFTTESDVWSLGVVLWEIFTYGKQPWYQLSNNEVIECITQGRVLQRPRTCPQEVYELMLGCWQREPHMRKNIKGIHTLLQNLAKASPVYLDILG
# Chain of UniProt Q63604 (Q63604 32-821): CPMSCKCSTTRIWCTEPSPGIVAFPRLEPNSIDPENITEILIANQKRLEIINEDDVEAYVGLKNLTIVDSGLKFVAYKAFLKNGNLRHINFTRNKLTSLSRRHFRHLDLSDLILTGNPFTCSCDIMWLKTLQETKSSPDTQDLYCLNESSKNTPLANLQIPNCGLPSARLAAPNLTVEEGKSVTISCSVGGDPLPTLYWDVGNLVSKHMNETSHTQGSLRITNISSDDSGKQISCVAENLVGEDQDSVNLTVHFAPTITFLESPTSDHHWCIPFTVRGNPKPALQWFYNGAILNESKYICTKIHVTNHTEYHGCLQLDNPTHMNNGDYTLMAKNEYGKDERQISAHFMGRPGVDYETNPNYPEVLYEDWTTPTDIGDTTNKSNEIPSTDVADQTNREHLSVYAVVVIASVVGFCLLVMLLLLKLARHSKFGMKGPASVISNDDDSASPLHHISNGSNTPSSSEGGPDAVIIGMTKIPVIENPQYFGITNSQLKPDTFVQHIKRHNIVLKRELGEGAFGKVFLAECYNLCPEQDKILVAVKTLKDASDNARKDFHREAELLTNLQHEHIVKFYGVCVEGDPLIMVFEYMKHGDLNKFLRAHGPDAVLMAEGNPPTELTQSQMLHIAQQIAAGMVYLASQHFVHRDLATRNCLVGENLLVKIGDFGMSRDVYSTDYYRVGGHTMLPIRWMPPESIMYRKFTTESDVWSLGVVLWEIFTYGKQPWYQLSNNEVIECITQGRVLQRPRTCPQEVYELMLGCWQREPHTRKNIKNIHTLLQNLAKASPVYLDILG
molecule,measurement,setting,value
"control mIgG (irrelevant mouse IgG, isotype-matched controls) (antibody)",mean channel fluorescence (mean channel fluorescence),[1],10
"brain-derived neurotrophic factor (BDNF) (ligand, UniProt P23560 129-247, looked up) HSDPARRGELSVCDSISEWVTAADKKTAVDMSGGTVTVLEKVPVSKGQLKQYFYETKCNPMGYTKEGCRGIDKRHWNSQCRTTQSYVRALTMDSKKRIGWRFIRIDTSCVCTLTIKRGR",rat spiral ganglion neuron survival relative to 1 nM NT-3 (100%),[2],92%
same,EC50 of p-ERK response in HEK293 cells expressing human TrkB (AlphaLisa),human TrkB (human),0.3 nM
same,Maximal Effect % of p-ERK response in HEK293 cells expressing human TrkB (relative to 10 nM BDNF),human TrkB (human),100%
neurotrophin-3 (NT-3) (ligand) YAEHKSHRGEYSVCDSESLWVTDKSSAIDIRGHQVTVLGEIKTGNSPVKQYFYETRCKEARPVKNGCRGIDDKHWNSQCKTSQTYVRALTSENNKLVGWRWIRIDTSCVCALSRKIGRT,EC50 of p-ERK response in 3T3 cells expressing human TrkC (AlphaLisa),[3],0.3 nM
same,"surviving rat spiral ganglion neurons per well, 4 days in culture",[4],10 to 20 neurons/well
